The record followed here is the Human Domainome abundance scans (Beltran et al. 2025).

± gives the uncertainty stated by the source.

B1: Pituitary-specific positive transcription factor 1, residues 130 to 198; numbered along this chain, P28069 (parent)
chain: RELEKFANEFKVRRIKLGYTQTNVGEALAAVHGSEFSQTTICRFENLQLSFKNACKLKAILSKWLEEAE

The variants in the data set derive from B1. Nature of the data set: abundance fitness (aPCA) (normalised: wild type 0, dead -1); higher = more abundant; growth selection in yeast, the domain comes from the species named. The conditions noted are these: Homo sapiens.
For RELEKFANEFKVRRIKLGYTQTNVGEALAAVHGSEFSQTTICRFENLQLSFKNACKLKAILQKWLEEAE, the abundance fitness worked out at 0.047 ± 0.066.
With RELEKFANEFKVRRIKLGYTQTNVGEALAAVHGSEFSQTTICRFENLQLSFKNACKLKAILRKWLEEAE the figure was -0.377 ± 0.071; with RELEKFANEFKVRRIKLGYTQTNVGEALAAVHGSEFSQTTICRFENLQLSFKNACKLKAILTKWLEEAE, 0.014 ± 0.07; with RELEKFANEFKVRRIKLGYTQTNVGEALAAVHGSEFSQTTICRFENLQLSFKNACKLKAILPKWLEEAE, -0.909 ± 0.27.
With RELEKFANEFKVRRIKLGYTQTNVGEALAAVHGSEFSQTTICRFENLQLSFKNACKLKAILWKWLEEAE the figure was -0.009 ± 0.053; with RELEKFANEFKVRRIKLGYTQTNVGEALAAVHGSEFSQTTICRFENLQLSFKNACKLKAILVKWLEEAE, -0.167 ± 0.064; with RELEKFANEFKVRRIKLGYTQTNVGEALAAVHGSEFSQTTICRFENLQLSFKNACKLKAILYKWLEEAE, -0.585 ± 0.17.
The value for RELEKFANEFKVRRIKLGYTQTNVGEALAAVHGSEFSQTTICRFENLQLSFKNACKLKAILSKWHEEAE was -0.887 ± 0.32; that for RELEKFANEFKVRRIKLGYTQTNVGEALAAVHGSEFSQTTICRFENLQLSFKNACKLKAILSKWDEEAE was -0.85 ± 0.19.
In the case of RELEKFANEFKVRRIKLGYTQTNVGEALAAVHGSEFSQTTICRFENLQLSFKNACKLKAILSKWMEEAE, the abundance fitness is -0.374 ± 0.075.
For the variant RELEKFANEFKVRRIKLGYTQTNVGEALAAVHGSEFSQTTICRFENLQLSFKNACKLKAILSKWWEEAE, the abundance fitness is -0.719 ± 0.12.
As for RELEKFANEFKVRRIKLGYTQTNVGEALAAVHGSEFSQTTICRFENLQLSFKNACKLKAILSKWPEEAE, the abundance fitness is -0.752 ± 0.2.
In the case of RELEKFANEFKVRRIKLGYTQTNVGEALAAVHGSEFSQTTICRFENLQLSFKNACKLKAILSKWEEEAE, the abundance fitness is -0.779 ± 0.16.
With RELEKFANEFKVRRIKLGYTQTNVGEALAAVHGSEFSQTTICRFENLQLSFKNACKLKAILSKWGEEAE, the abundance fitness is -0.791 ± 0.14.
The value for RELEKFANEFKVRRIKLGYTQTNVGEALAAVHGSEFSQTTICRFENLQLSFKNACKLKAILSKWTEEAE was -0.935 ± 0.18.
With RELEKFANEFKVRRIKLGYTQTNVGEALAAVHGSEFSQTTICRFENLQLSFKNACKLKAILSKWIEEAE the figure was 0.105 ± 0.2; with RELEKFANEFKVRRIKLGYTQTNVGEALAAVHGSEFSQTTICRFENLQLSFKNACKLKAILSKWREEAE, -0.748 ± 0.11; with RELEKFANEFKVRRIKLGYTQTNVGEALAAVHGSEFSQTTICRFENLQLSFKNACKLKAILSKWKEEAE, -0.75 ± 0.11.
With RELEKFANEFKVRRIKLGYTQTNVGEALAAVHGSEFSQTTICRFENLQLSFKNACKLKAILSKWVEEAE the figure was -0.38 ± 0.059; with RELEKFANEFKVRRIKLGYTQTNVGEALAAVHGSEFSQTTICRFENLQLSFKNACKLKAILSKWFEEAE, -0.884 ± 0.25; with RELEKFANEFKVRRIKLGYTQTNVGEALAAVHGSEFSQTTICRFENLQLSFKNACKLKAILSKWYEEAE, -0.833 ± 0.18.
In the case of RELEKFANEFKVRRIKLGYTQTNVGEALAAVHGSEFSQTTICRFENLQLSFKNACKLKAILSKWNEEAE, the abundance fitness is -0.955 ± 0.21.
In the case of RELEKFANEFKVRRIKLGYTQTNVGEALAAVHGSEFSQTTICRFENLQLSFKNACKLKAILSKWSEEAE, the abundance fitness is -0.636 ± 0.093.
On to RELEKFANEFKVRRIKLGYTQTNVGEALAAVHGSEFSQTTICRFENLQLSFKNACKLKAILSKWAEEAE, for which the abundance fitness was -0.772 ± 0.1.
Consider RELEKFANEFKVRRIKLGYTQTNVGEALAAVHGSEFSQTTICRFENLQLSFKNACKLKAILSKWLTEAE, for which the abundance fitness is -0.115 ± 0.093.
The value for RELEKFANEFKVRRIKLGYTQTNVGEALAAVHGSEFSQTTICRFENLQLSFKNACKLKAILSKWLCEAE was -0.108 ± 0.077; that for RELEKFANEFKVRRIKLGYTQTNVGEALAAVHGSEFSQTTICRFENLQLSFKNACKLKAILSKWLVEAE was -0.123 ± 0.054.
With RELEKFANEFKVRRIKLGYTQTNVGEALAAVHGSEFSQTTICRFENLQLSFKNACKLKAILSKWLMEAE, the abundance fitness was -0.332 ± 0.096.
The value for RELEKFANEFKVRRIKLGYTQTNVGEALAAVHGSEFSQTTICRFENLQLSFKNACKLKAILSKWLSEAE was -0.335 ± 0.078.
With RELEKFANEFKVRRIKLGYTQTNVGEALAAVHGSEFSQTTICRFENLQLSFKNACKLKAILSKWLGEAE the figure was -0.373 ± 0.07; with RELEKFANEFKVRRIKLGYTQTNVGEALAAVHGSEFSQTTICRFENLQLSFKNACKLKAILSKWLYEAE, -0.304 ± 0.12; with RELEKFANEFKVRRIKLGYTQTNVGEALAAVHGSEFSQTTICRFENLQLSFKNACKLKAILSKWLKEAE, -0.296 ± 0.099.
With RELEKFANEFKVRRIKLGYTQTNVGEALAAVHGSEFSQTTICRFENLQLSFKNACKLKAILSKWLFEAE the figure was -0.242 ± 0.11.
Consider RELEKFANEFKVRRIKLGYTQTNVGEALAAVHGSEFSQTTICRFENLQLSFKNACKLKAILSKWLNEAE, for which the abundance fitness is -0.373 ± 0.14.
For RELEKFANEFKVRRIKLGYTQTNVGEALAAVHGSEFSQTTICRFENLQLSFKNACKLKAILSKWLAEAE, the abundance fitness was -0.054 ± 0.069.
Turning to RELEKFANEFKVRRIKLGYTQTNVGEALAAVHGSEFSQTTICRFENLQLSFKNACKLKAILSKWLQEAE, the abundance fitness was -0.193 ± 0.086.
With RELEKFANEFKVRRIKLGYTQTNVGEALAAVHGSEFSQTTICRFENLQLSFKNACKLKAILSKWLDEAE the figure was -0.037 ± 0.085; with RELEKFANEFKVRRIKLGYTQTNVGEALAAVHGSEFSQTTICRFENLQLSFKNACKLKAILSKWLIEAE, -0.281 ± 0.079.
The value for RELEKFANEFKVRRIKLGYTQTNVGEALAAVHGSEFSQTTICRFENLQLSFKNACKLKAILSKWLREAE was -0.241 ± 0.051.
As for RELEKFANEFKVRRIKLGYTQTNVGEALAAVHGSEFSQTTICRFENLQLSFKNACKLKAILSKWLHEAE, the abundance fitness was -0.334 ± 0.29.
Regarding RELEKFANEFKVRRIKLGYTQTNVGEALAAVHGSEFSQTTICRFENLQLSFKNACKLKAILSKWLWEAE, the abundance fitness was -0.562 ± 0.17.
With RELEKFANEFKVRRIKLGYTQTNVGEALAAVHGSEFSQTTICRFENLQLSFKNACKLKAILSPWLEEAE the figure was -0.303 ± 0.082; with RELEKFANEFKVRRIKLGYTQTNVGEALAAVHGSEFSQTTICRFENLQLSFKNACKLKAILSDWLEEAE, 0.112 ± 0.077; with RELEKFANEFKVRRIKLGYTQTNVGEALAAVHGSEFSQTTICRFENLQLSFKNACKLKAILSSWLEEAE, -0.069 ± 0.046.
Consider RELEKFANEFKVRRIKLGYTQTNVGEALAAVHGSEFSQTTICRFENLQLSFKNACKLKAILSWWLEEAE, for which the abundance fitness is -0.589 ± 0.076.
With RELEKFANEFKVRRIKLGYTQTNVGEALAAVHGSEFSQTTICRFENLQLSFKNACKLKAILSFWLEEAE the figure was -0.799 ± 0.16; with RELEKFANEFKVRRIKLGYTQTNVGEALAAVHGSEFSQTTICRFENLQLSFKNACKLKAILSCWLEEAE, -0.443 ± 0.098.
For the variant RELEKFANEFKVRRIKLGYTQTNVGEALAAVHGSEFSQTTICRFENLQLSFKNACKLKAILSVWLEEAE, the abundance fitness is -0.155 ± 0.072.
Turning to RELEKFANEFKVRRIKLGYTQTNVGEALAAVHGSEFSQTTICRFENLQLSFKNACKLKAILSIWLEEAE, the abundance fitness is -0.326 ± 0.094.
With RELEKFANEFKVRRIKLGYTQTNVGEALAAVHGSEFSQTTICRFENLQLSFKNACKLKAILSYWLEEAE the figure was -0.508 ± 0.16; with RELEKFANEFKVRRIKLGYTQTNVGEALAAVHGSEFSQTTICRFENLQLSFKNACKLKAILSEWLEEAE, 0.077 ± 0.065.
The value for RELEKFANEFKVRRIKLGYTQTNVGEALAAVHGSEFSQTTICRFENLQLSFKNACKLKAILSLWLEEAE was -0.3 ± 0.06; that for RELEKFANEFKVRRIKLGYTQTNVGEALAAVHGSEFSQTTICRFENLQLSFKNACKLKAILSTWLEEAE was 0.022 ± 0.047.
Turning to RELEKFANEFKVRRIKLGYTQTNVGEALAAVHGSEFSQTTICRFENLQLSFKNACKLKAILSAWLEEAE, the abundance fitness turned out to be 0.025 ± 0.061.
As to RELEKFANEFKVRRIKLGYTQTNVGEALAAVHGSEFSQTTICRFENLQLSFKNACKLKAILSRWLEEAE, the abundance fitness is -0.152 ± 0.055.
With RELEKFANEFKVRRIKLGYTQTNVGEALAAVHGSEFSQTTICRFENLQLSFKNACKLKAILSQWLEEAE the figure was -0.157 ± 0.11.
The value for RELEKFANEFKVRRIKLGYTQTNVGEALAAVHGSEFSQTTICRFENLQLSFKNACKLKAILSMWLEEAE was -0.155 ± 0.13; that for RELEKFANEFKVRRIKLGYTQTNVGEALAAVHGSEFSQTTICRFENLQLSFKNACKLKAILSHWLEEAE was 0.039 ± 0.2; that for RELEKFANEFKVRRIKLGYTQTNVGEALAAVHGSEFSQTTICRFENLQLSFKNACKLKAILSGWLEEAE was -0.153 ± 0.059.
The value for RELEKFANEFKVRRIKLGYTQTNVGEALAAVHGSEFSQTTICRFENLQLSFKNACKLKAILSKFLEEAE was -0.398 ± 0.11; that for RELEKFANEFKVRRIKLGYTQTNVGEALAAVHGSEFSQTTICRFENLQLSFKNACKLKAILSKRLEEAE was -0.79 ± 0.14.
As to RELEKFANEFKVRRIKLGYTQTNVGEALAAVHGSEFSQTTICRFENLQLSFKNACKLKAILSKNLEEAE, the abundance fitness was -0.475 ± 0.28.
With RELEKFANEFKVRRIKLGYTQTNVGEALAAVHGSEFSQTTICRFENLQLSFKNACKLKAILSKKLEEAE the figure was -0.461 ± 0.16; with RELEKFANEFKVRRIKLGYTQTNVGEALAAVHGSEFSQTTICRFENLQLSFKNACKLKAILSKCLEEAE, -0.164 ± 0.15; with RELEKFANEFKVRRIKLGYTQTNVGEALAAVHGSEFSQTTICRFENLQLSFKNACKLKAILSKGLEEAE, -0.568 ± 0.077.
The value for RELEKFANEFKVRRIKLGYTQTNVGEALAAVHGSEFSQTTICRFENLQLSFKNACKLKAILSKTLEEAE was -0.684 ± 0.11.
The value for RELEKFANEFKVRRIKLGYTQTNVGEALAAVHGSEFSQTTICRFENLQLSFKNACKLKAILSKSLEEAE was -0.722 ± 0.2; that for RELEKFANEFKVRRIKLGYTQTNVGEALAAVHGSEFSQTTICRFENLQLSFKNACKLKAILSKALEEAE was -0.496 ± 0.18.
Turning to RELEKFANEFKVRRIKLGYTQTNVGEALAAVHGSEFSQTTICRFENLQLSFKNACKLKAILSKLLEEAE, the abundance fitness was -0.795 ± 0.27.
Regarding RELEKFANEFKVRRIKLGYTQTNVGEALAAVHGSEFSQTTICRFENLQLSFKNACKLKAILSKVLEEAE, the abundance fitness is -0.966 ± 0.25.
With RELEKFANEFKVRRIKLGYTQTNVGEALAAVHGSEFSQTTICRFENLQLSFKNACKLKAILSKQLEEAE the figure was -0.643 ± 0.14.
With RELEKFANEFKVRRIKLGYTQTNVGEALAAVHGSEFSQTTICRFENLQLSFKNACKLKAILSKWLEHAE the figure was -0.34 ± 0.23; with RELEKFANEFKVRRIKLGYTQTNVGEALAAVHGSEFSQTTICRFENLQLSFKNACKLKAILSKWLEFAE, -0.49 ± 0.14; with RELEKFANEFKVRRIKLGYTQTNVGEALAAVHGSEFSQTTICRFENLQLSFKNACKLKAILSKWLEDAE, 0.002 ± 0.069.
As for RELEKFANEFKVRRIKLGYTQTNVGEALAAVHGSEFSQTTICRFENLQLSFKNACKLKAILSKWLELAE, the abundance fitness was -0.594 ± 0.097.
As to RELEKFANEFKVRRIKLGYTQTNVGEALAAVHGSEFSQTTICRFENLQLSFKNACKLKAILSKWLECAE, the abundance fitness was -0.301 ± 0.073.
With RELEKFANEFKVRRIKLGYTQTNVGEALAAVHGSEFSQTTICRFENLQLSFKNACKLKAILSKWLEAAE the figure was -0.214 ± 0.071.
For the variant RELEKFANEFKVRRIKLGYTQTNVGEALAAVHGSEFSQTTICRFENLQLSFKNACKLKAILSKWLEKAE, the abundance fitness is -0.18 ± 0.11.
